Test results taken from US10729768B2, “Combination of anti-CD20 antibody and PI3 kinase selective inhibitor” (TG Therapeutics, Inc., priority 2012, dated 2020).

What was measured:
CD19-positive cells = test: B cell depletion from human whole blood (HWB), flow cytometry, CD19; type: cell-based; conditions: human whole blood, doses from 1 to 100,000 ng/ml, 24 hrs
Procedure: (§1) A flow cytometry assay was used to compare the ability of S-isomer of compound of formula A, Ublituximab (Ubx), and combinations thereof to deplete B cells from human whole blood (HWB). In this assay, 50 μl of HWB sample was treated with either S-isomer of a compound of formula A (1000 nM), UBX (100 μg/ml to 0.1 μg/ml), or UBX in combination with S-isomer of a compound of formula A at 1000 nM and incubated for 24 hrs at 37° C. and 5% CO2. 20 μl of treated sample was taken in a 1.5 ml centrifuge tube and labeled with CD45 FITC and CD19 PE or CD20 FITC antibody and incubated in the dark for 1 hour at RT. 1 ml of red blood cell (RBC) lysing solution was added, and tubes were centrifuged at 3000 rpm for 10 minutes. […] The tubes were vortexed, and 5000 events were acquired on a Guava® easyCyte™ flow cytometer and analyzed with Incyte Software.
(§2) Gated population of CD45-positive cells were further analyzed for CD19. The number of cells that were positive for CD45 and CD19 was calculated, and the data was expressed as the percentage of CD19 positive cells in the population. CD20-positive populations were gated with fluorescence positive minus unlabeled cells, and the data was expressed as the percentage of CD20-positive cells in the population. The loss of CD19/CD20 population from control was calculated and expressed as % depletion with respect to control.

CD20-positive cells = test: B cell depletion from human whole blood (HWB), flow cytometry, CD20; type: cell-based; conditions: human whole blood, 24 hrs
Procedure: as §1, §2

CD19+ B-cell = test: LPS-induced proliferation in HWB, flow cytometry, CD19; type: cell-based, human; conditions: 72 hrs
Procedure: Flow cytometry was used to study the effect of S-isomer of a compound of formula A, Ubx, and combinations thereof on LPS-induced proliferation of CD19 and CD20 cells in HWB. In these experiments, 250 μl of diluted (1:3.5 with RPMI-HG Media) HWB sample was treated with either S-isomer of a compound of formula A (10 μM to 0.1 μM), UBX (100 μg/ml to 0.1 μg/ml) or UBX with S-isomer of a compound of formula A at 1000 nM for 15 minutes followed by 20 μg/ml LPS induction and incubated for 72 hrs at 37° C. and 5% CO2. 20 μl of treated sample was taken in a 1.5 ml centrifuge tube and labeled with CD20 FITC and CD19 PE antibody and incubated in the dark for 1 hour at RT. 1 ml of RBC lysing solution was added and tubes were centrifuged at 3000 rpm for 10 minutes. Supernatant was aspirated, and 250 μl of PBS was added to the pellet. Tubes were vortexed, and 5000 events were acquired on a Guava® easyCyte™ flow cytometer and analyzed with Incyte Software.
Gated population of lymphocytes positive cells were further analyzed for CD19 and CD20. Cells positive for CD19 and/or CD20 were calculated, and data were expressed as the percentage positive cells in the population. The loss of positive population from control with LPS induction was calculated and expressed as % inhibition with respect to control.

[1] = test system: Daudi, RPMI-8226, Raji, and U266B1 cells; test: in situ caspase-3 kit, apoptosis (Example 3), cell lines tested; type: cell-based; conditions: cell lines tested, 24 hrs
Procedure: In order to determine the effect of S-isomer of a compound of formula A, UBX, and combinations thereof on apoptosis in cancer cells, an in situ caspase-3 kit (Millipore) was used. Cells were plated in a 6 well plate at a concentration of 0.5×10^6 cells/ml, treated with either S-isomer of a compound of formula A (1000 nM), UBX (100 μg/ml to 0.1 μg/ml), or UBX with S-isomer of a compound of formula A at 1000 nM, and incubated for 24 hrs at 37° C. and 5% CO2. The cells were then transferred to microfuge tubes to receive 10 μl of freshly prepared FLICA™ reagent and incubated for 1 hour at 37° C. and 5% CO2 away from light. After extensive washes with wash buffer, test samples were adjusted to equalize the number of cells in PBS. 100 μl of each cell suspension was transferred to black 96-well plates in duplicates, and the fluorescence was read at an excitation wavelength of 490 nm and an emission wavelength of 520 nm in a plate reader. The fluorescence intensity for a DMSO control was subtracted from that of test compounds. Data was expressed as a percent of the maximum response (100%) and plotted accordingly.

DB Cells = test: cell cycle assay, flow cytometry; type: cell-based; conditions: for G0/G1, percentage of the cell population / G2/M, percentage of the cell population / S, percentage of the cell population / Sub G0, percentage of the cell population: DB cells, 72 h
Procedure: (§3) A cell cycle assay reagent (Millipore) was used to determine the effect of S-isomer of a compound of formula A, UBX, and combinations thereof on the cell cycle in cancerous cells. […] The cells were transferred to microfuge tubes to receive 50 μl of cell cycle reagent and incubated for 30 minutes at RT away from light. Cells were then diluted with 300-400 μl PBS, and a minimum of 10,000 events were acquired on a Guava® easyCyte™ flow cytometer. The data was analyzed with Express Pro software and the percentage of the cell population in different cell cycle stages with respect to control was presented in histograms.

U266B1 cells = test: cell cycle assay, flow cytometry; type: cell-based; conditions: for G0/G1, percentage of the cell population / G2/M, percentage of the cell population / S, percentage of the cell population / Sub G0, percentage of the cell population: 72 h
Procedure: as §3

B1: UBX: monoclonal antibody that targets a specific and unique epitope on CD20, bioengineered for enhanced clinical activity and potency (antibody, V domains shown)
VH: QAYLQQSGAELVRPGASVKMSCKASGYTFTSYNMHWVKQTPRQGLEWIGGIYPGNGDTSYNQKFKGKATLTVGKSSSTAYMQLSSLTSEDSAVYFCARYDYNYAMDYWGQGTSVTVSS
VL: QIVLSQSPAILSASPGEKVTMTCRASSSVSYMHWYQQKPGSSPKPWIYATSNLASGVPARFSGSGSGTSYSFTISRVEAEDAATYYCQQWTFNPPTFGGGTRLEIK
modifications: antibody fragment
For B1, the “depletion of B-cells” value (CD19-positive cells) was 20-30%, the “reduction in CD20+ B-cells” value (CD20-positive cells) was “dose-dependent reduction” and the “effect on CD19+ cells (LPS-induced proliferation)” value (CD19+ B-cell) was “minimal effect”. For the same molecule, the “ability to induce Caspase-3 activity” value [1] was “limited ability”, the “G0/G1, percentage of the cell population” value (DB Cells; UBX 0.001 ng/ml) was 54.38 and the “G2/M, percentage of the cell population” value (DB Cells; UBX 0.001 ng/ml) was 34.02. For the same molecule, the “S, percentage of the cell population” value (DB Cells; UBX 0.001 ng/ml) was 9.45, the “Sub G0, percentage of the cell population” value (shortened to “Sub G0, percentage”) (DB Cells; UBX 0.001 ng/ml) was 0.59 and the “G0/G1, percentage of the cell population” value (DB Cells; UBX 0.01 ng/ml) was 54.99. For the same molecule, the “G2/M, percentage of the cell population” value (DB Cells; UBX 0.01 ng/ml) was 34.79, the “S, percentage of the cell population” value (DB Cells; UBX 0.01 ng/ml) was 7.73 and the “Sub G0, percentage” value (DB Cells; UBX 0.01 ng/ml) was 0.73. The “G0/G1, percentage of the cell population” value (DB Cells; UBX 0.1 ng/ml) was 56.34, the “G2/M, percentage of the cell population” value (DB Cells; UBX 0.1 ng/ml) was 38.40 and the “S, percentage of the cell population” value (DB Cells; UBX 0.1 ng/ml) was 12.34. For the same molecule, the “Sub G0, percentage” value (DB Cells; UBX 0.1 ng/ml) was 1.10, the “G0/G1, percentage of the cell population” value (DB Cells; UBX 1 ng/ml) was 51.36 and the “G2/M, percentage of the cell population” value (DB Cells; UBX 1 ng/ml) was 40.07. The “S, percentage of the cell population” value (DB Cells; UBX 1 ng/ml) was 6.46, the “Sub G0, percentage” value (DB Cells; UBX 1 ng/ml) was 0.52 and the “G0/G1, percentage of the cell population” value (DB Cells; UBX 10 ng/ml) was 49.52. The “G2/M, percentage of the cell population” value (DB Cells; UBX 10 ng/ml) was 40.56, the “S, percentage of the cell population” value (DB Cells; UBX 10 ng/ml) was 10.07 and the “Sub G0, percentage” value (DB Cells; UBX 10 ng/ml) was 0.56. The “G0/G1, percentage of the cell population” value (DB Cells; UBX 100 ng/ml) was 45.98, the “G2/M, percentage of the cell population” value (DB Cells; UBX 100 ng/ml) was 46.55 and the “S, percentage of the cell population” value (DB Cells; UBX 100 ng/ml) was 7.66. The “Sub G0, percentage” value (DB Cells; UBX 100 ng/ml) was 0.67, the cell cycle effect (DB Cells; Diffuse Large B-cell Lymphoma (DB) cells, 72 hours) was “modest G2/M arrest” and the “G0/G1, percentage of the cell population” value (U266B1 cells; UBX 0.001 ng/ml) was 60.79. The “G2/M, percentage of the cell population” value (U266B1 cells; UBX 0.001 ng/ml) was 30.49, the “S, percentage of the cell population” value (U266B1 cells; UBX 0.001 ng/ml) was 6.00 and the “Sub G0, percentage” value (U266B1 cells; UBX 0.001 ng/ml) was 1.34. The “G0/G1, percentage of the cell population” value (U266B1 cells; UBX 0.01 ng/ml) was 59.32, the “G2/M, percentage of the cell population” value (U266B1 cells; UBX 0.01 ng/ml) was 35.48 and the “S, percentage of the cell population” value (U266B1 cells; UBX 0.01 ng/ml) was 6.57. The “Sub G0, percentage” value (U266B1 cells; UBX 0.01 ng/ml) was 0.74, the “G0/G1, percentage of the cell population” value (U266B1 cells; UBX 0.1 ng/ml) was 57.53 and the “G2/M, percentage of the cell population” value (U266B1 cells; UBX 0.1 ng/ml) was 35.64. For the same molecule, the “S, percentage of the cell population” value (U266B1 cells; UBX 0.1 ng/ml) was 7.63, the “Sub G0, percentage” value (U266B1 cells; UBX 0.1 ng/ml) was 1.35 and the “G0/G1, percentage of the cell population” value (U266B1 cells; UBX 1 ng/ml) was 58.81. For the same molecule, the “G2/M, percentage of the cell population” value (U266B1 cells; UBX 1 ng/ml) was 36.07, the “S, percentage of the cell population” value (U266B1 cells; UBX 1 ng/ml) was 7.07 and the “Sub G0, percentage” value (U266B1 cells; UBX 1 ng/ml) was 0.51. For the same molecule, the “G0/G1, percentage of the cell population” value (U266B1 cells; UBX 10 ng/ml) was 56.85, the “G2/M, percentage of the cell population” value (U266B1 cells; UBX 10 ng/ml) was 37.86 and the “S, percentage of the cell population” value (U266B1 cells; UBX 10 ng/ml) was 6.34. For the same molecule, the “Sub G0, percentage” value (U266B1 cells; UBX 10 ng/ml) was 0.78, the “G0/G1, percentage of the cell population” value (U266B1 cells; UBX 100 ng/ml) was 52.95 and the “G2/M, percentage of the cell population” value (U266B1 cells; UBX 100 ng/ml) was 39.65. The “S, percentage of the cell population” value (U266B1 cells; UBX 100 ng/ml) was 7.91, the “Sub G0, percentage” value (U266B1 cells; UBX 100 ng/ml) was 1.95 and the cell cycle effect (U266B1 cells; 72 hours) was “modest G2/M arrest”.
